Measurements as given in PMC11417369, “DNA sequence and chromatin differentiate sequence-specific transcription factor binding in the human malaria parasite Plasmodium falciparum”.

T1: AP2-HC D1 (Plasmodium falciparum, UniProt Q8IKR9 1316-1374)
T1 sequence: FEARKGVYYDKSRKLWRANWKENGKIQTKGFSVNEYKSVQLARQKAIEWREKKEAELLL

B1: CACACA_negctrl_site758 (dsDNA)
DNA 1: TTTTAAAAAATAAAATATTATTGAAGTAAAATATGA
DNA 2: TCATATTTTACTTCAATAATATTTTATTTTTTAAAA
B2: CACACA_negctrl_site1132 (dsDNA)
DNA 1: ATGTAATCATTTTCGACTTTTTTTTTTTTTTTTTTT
DNA 2: AAAAAAAAAAAAAAAAAAAGTCGAAAATGATTACAT
B3: CACACA_negctrl_site1716 (dsDNA)
DNA 1: TTTATAGTTTTAAACAAAGTAATACAAATGTATATA
DNA 2: TATATACATTTGTATTACTTTGTTTAAAACTATAAA
B4: CACACA_negctrl_site1085 (dsDNA)
DNA 1: TATATTCAAAAAAATTCATTTCTGATTTTTTTTTTT
DNA 2: AAAAAAAAAAATCAGAAATGAATTTTTTTGAATATA
B5: CACACA_negctrl_site1319 (dsDNA)
DNA 1: ATTTTTTTTTTTTTTTTTTTTTTTTATGAATGTTAT
DNA 2: ATAACATTCATAAAAAAAAAAAAAAAAAAAAAAAAT
B6: CACACA_negctrl_site966 (dsDNA)
DNA 1: TATTTGTTTGAATTTTTTTTTTTTTTTTTTTATGTG
DNA 2: CACATAAAAAAAAAAAAAAAAAAATTCAAACAAATA
B7: CACACA_negctrl_site1371 (dsDNA)
DNA 1: ATAATTAGTTCAATTTTTTTTTTTTTTTTTTTTTTT
DNA 2: AAAAAAAAAAAAAAAAAAAAAAATTGAACTAATTAT
B8: CACACA_negctrl_site869 (dsDNA)
DNA 1: TTCTTACACAAAAAAATGAAATCAATCAAAAAAAAA
DNA 2: TTTTTTTTTGATTGATTTCATTTTTTTGTGTAAGAA
B9: CACACA_negctrl_site1488 (dsDNA)
DNA 1: AATTCTTTTTATATATTAAATATTATTAATAAGTCA
DNA 2: TGACTTATTAATAATATTTAATATATAAAAAGAATT
B10: CACACA_negctrl_site1399 (dsDNA)
DNA 1: TATTTTAATTTTTTTTTGTTTTTTCTAATACATGTA
DNA 2: TACATGTATTAGAAAAAACAAAAAAAAATTAAAATA
B11: CACACA_negctrl_site76 (dsDNA)
DNA 1: TAAATGTGAAATTTTATATTTTATATAATATACAAT
DNA 2: ATTGTATATTATATAAAATATAAAATTTCACATTTA
B12: CACACA_negctrl_site788 (dsDNA)
DNA 1: GTATATATCTAAAAATATATATATATATATATATAT
DNA 2: ATATATATATATATATATATATTTTTAGATATATAC
B13: CACACA_negctrl_site1364 (dsDNA)
DNA 1: ATTTTTTTTTTTTTTTTTTTTTTTTTTTTTTTTTTT
DNA 2: AAAAAAAAAAAAAAAAAAAAAAAAAAAAAAAAAAAT
B14: CACACA_negctrl_site1094 (dsDNA)
DNA 1: TTTTATTGTTTTTTTTTTTTTTCTTTTTTTTTTTTT
DNA 2: AAAAAAAAAAAAAGAAAAAAAAAAAAAACAATAAAA
B15: CACACA_negctrl_site1204 (dsDNA)
DNA 1: ATTTTTTTTTTTTTTTTTCATTTTTTTTTTTTTTTT
DNA 2: AAAAAAAAAAAAAAAATGAAAAAAAAAAAAAAAAAT
B16: CACACA_negctrl_site1459 (dsDNA)
DNA 1: AAAAATATATATATATTTCTTCTTTGTTAAAATGTA
DNA 2: TACATTTTAACAAAGAAGAAATATATATATATTTTT
B17: CACACA_negctrl_site1687 (dsDNA)
DNA 1: TATTGATAATTTTATATATACATACATAAATAAATA
DNA 2: TATTTATTTATGTATGTATATATAAAATTATCAATA
B18: CACACA_negctrl_site1773 (dsDNA)
DNA 1: TGGTTATTTATCTTTATTATAAATATTTACAAATAA
DNA 2: TTATTTGTAAATATTTATAATAAAGATAAATAACCA
B19: CACACA_negctrl_site1800 (dsDNA)
DNA 1: TTTTAACGTAATTCAAATGAGCAGAATTTTTTAAAA
DNA 2: TTTTAAAAAATTCTGCTCATTTGAATTACGTTAAAA
B20: CACACA_negctrl_site1802 (dsDNA)
DNA 1: TTATAATAAATATTTATTATATATAATATATATTAC
DNA 2: GTAATATATATTATATATAATAAATATTTATTATAA
B21: CACACA_negctrl_site566 (dsDNA)
DNA 1: TATTTTTATACAATTTAACACGGGTTATAAAATGTA
DNA 2: TACATTTTATAACCCGTGTTAAATTGTATAAAAATA
B22: CACACA_negctrl_site643 (dsDNA)
DNA 1: TTTTAAAAAATATAATAATATAAATATGTTTTATAC
DNA 2: GTATAAAACATATTTATATTATTATATTTTTTAAAA
B23: CACACA_negctrl_site485 (dsDNA)
DNA 1: AAAGTGGCCATATATTTTTTTTTTTTTTTCCTTATT
DNA 2: AATAAGGAAAAAAAAAAAAAAATATATGGCCACTTT
B24: CACACA_negctrl_site437 (dsDNA)
DNA 1: ATTATATTAATATATATATATATATATATAATAATA
DNA 2: TATTATTATATATATATATATATATATTAATATAAT
B25: CACACA_negctrl_site39 (dsDNA)
DNA 1: AATATATCAAAAATTGGATAGTTTCTTATAAAAAAT
DNA 2: ATTTTTTATAAGAAACTATCCAATTTTTGATATATT
B26: CACACA_negctrl_site828 (dsDNA)
DNA 1: ATATATATATATGTTTATTTATTTGAACGATTGTGG
DNA 2: CCACAATCGTTCAAATAAATAAACATATATATATAT
B27: CACACA_negctrl_site481 (dsDNA)
DNA 1: TGACTTTTTTTTTTTTTTTTTTTTTTTTATCTTTTT
DNA 2: AAAAAGATAAAAAAAAAAAAAAAAAAAAAAAAGTCA
B28: CACACA_negctrl_site313 (dsDNA)
DNA 1: ATAAACAAACATAAATCTGATTTTAATTTTTTTAAG
DNA 2: CTTAAAAAAATTAAAATCAGATTTATGTTTGTTTAT
B29: CACACA_negctrl_site1109 (dsDNA)
DNA 1: TATATATCTGTGAAAATACTTAAATTGTTATAAAAA
DNA 2: TTTTTATAACAATTTAAGTATTTTCACAGATATATA
B30: CACACA_negctrl_site279 (dsDNA)
DNA 1: TGTTTTTGTGATCATATGAAAAAATTACCTACAAGG
DNA 2: CCTTGTAGGTAATTTTTTCATATGATCACAAAAACA
B31: CACACA_negctrl_site147 (dsDNA)
DNA 1: GATTACCTTTTTTTTTTTTTTTTTTTTTTTTTTTTC
DNA 2: GAAAAAAAAAAAAAAAAAAAAAAAAAAAAGGTAATC
B32: CACACA_negctrl_site1042 (dsDNA)
DNA 1: ATCAAAAAAAAAAAATTTTTTTTTTTGTTTGTTTCC
DNA 2: GGAAACAAACAAAAAAAAAAATTTTTTTTTTTTGAT
B33: CACACA_negctrl_site1520 (dsDNA)
DNA 1: TCTTAAATTATGATAAAATATAATAAATAAATAAAT
DNA 2: ATTTATTTATTTATTATATTTTATCATAATTTAAGA
B34: CACACA_negctrl_site1361 (dsDNA)
DNA 1: TTAAAATTCAAAAAAAAAAATCAGAATATCAGAAAA
DNA 2: TTTTCTGATATTCTGATTTTTTTTTTTGAATTTTAA
B35: CACACA_negctrl_site1766 (dsDNA)
DNA 1: ACACATATATATATATATATATATATATATATATAT
DNA 2: ATATATATATATATATATATATATATATATATGTGT
B36: CACACA_negctrl_site980 (dsDNA)
DNA 1: ATTTTTAAGCATATCAAAAAAAAAAAAAAAATTAAT
DNA 2: ATTAATTTTTTTTTTTTTTTTGATATGCTTAAAAAT
B37: CACACA_negctrl_site1635 (dsDNA)
DNA 1: TTTTGATATAAATATTAGATTAATAAATAAAAAAAT
DNA 2: ATTTTTTTATTTATTAATCTAATATTTATATCAAAA
B38: CACACA_negctrl_site856 (dsDNA)
DNA 1: TTTCCTGGTCAAGGGGTTACGGTTACGTCCTCTTGC
DNA 2: GCAAGAGGACGTAACCGTAACCCCTTGACCAGGAAA
B39: CACACA_negctrl_site577 (dsDNA)
DNA 1: TCATATTATAAATAAATAAATAAATATATATATATA
DNA 2: TATATATATATATTTATTTATTTATTTATAATATGA
B40: CACACA_negctrl_site1471 (dsDNA)
DNA 1: TGGATTTTTTGATTTTTGTTTTTCTTCTTTCCCCCC
DNA 2: GGGGGGAAAGAAGAAAAACAAAAATCAAAAAATCCA
B41: CACACA_negctrl_site19 (dsDNA)
DNA 1: TTAAATTCGTCATTTTAAAATAATACAAAAGTTCAA
DNA 2: TTGAACTTTTGTATTATTTTAAAATGACGAATTTAA
B42: CACACA_negctrl_site1570 (dsDNA)
DNA 1: TTTTTTTTTTTTTTTTTTTTTTTTTTTTTTTGGGGG
DNA 2: CCCCCAAAAAAAAAAAAAAAAAAAAAAAAAAAAAAA
B43: CACACA_negctrl_site386 (dsDNA)
DNA 1: TCTTACAAGGAACTAATAAAATTGTAGTTTGTATTT
DNA 2: AAATACAAACTACAATTTTATTAGTTCCTTGTAAGA
B44: CACACA_negctrl_site401 (dsDNA)
DNA 1: TGTTAATATATCATTATGTTATAGGTTCAGCTGGGA
DNA 2: TCCCAGCTGAACCTATAACATAATGATATATTAACA

target: T1, AP2-HC D1; test: gcPBM; about 25 ug protein; PBS, 1% milk, 0.2 mg/ml BSA, salmon testes DNA, 0.03% Triton X-100; conditions: tags: N-terminal GST (pGEX-4T-1), kept; label: surface-attached array probe

| Binder | binding signal |
| --- | --- |
| B1 | 9.36 ln median PBM intensity, better of two orientations |
| B2 | 9.38 ln median PBM intensity, better of two orientations |
| B3 | 9.34 ln median PBM intensity, better of two orientations |
| B4 | 9.44 ln median PBM intensity, better of two orientations |
| B5 | 9.34 ln median PBM intensity, better of two orientations |
| B6 | 9.38 ln median PBM intensity, better of two orientations |
| B7 | 9.38 ln median PBM intensity, better of two orientations |
| B8 | 9.37 ln median PBM intensity, better of two orientations |
| B9 | 9.39 ln median PBM intensity, better of two orientations |
| B10 | 9.45 ln median PBM intensity, better of two orientations |
| B11 | 9.39 ln median PBM intensity, better of two orientations |
| B12 | 9.43 ln median PBM intensity, better of two orientations |
| B13 | 9.34 ln median PBM intensity, better of two orientations |
| B14 | 9.39 ln median PBM intensity, better of two orientations |
| B15 | 9.43 ln median PBM intensity, better of two orientations |
| B16 | 9.42 ln median PBM intensity, better of two orientations |
| B17 | 9.44 ln median PBM intensity, better of two orientations |
| B18 | 9.44 ln median PBM intensity, better of two orientations |
| B19 | 9.36 ln median PBM intensity, better of two orientations |
| B20 | 9.39 ln median PBM intensity, better of two orientations |
| B21 | 9.46 ln median PBM intensity, better of two orientations |
| B22 | 9.34 ln median PBM intensity, better of two orientations |

| Binder | binding signal |
| --- | --- |
| B23 | 9.44 ln median PBM intensity, better of two orientations |
| B24 | 9.4 ln median PBM intensity, better of two orientations |
| B25 | 9.45 ln median PBM intensity, better of two orientations |
| B26 | 9.44 ln median PBM intensity, better of two orientations |
| B27 | 9.43 ln median PBM intensity, better of two orientations |
| B28 | 9.42 ln median PBM intensity, better of two orientations |
| B29 | 9.44 ln median PBM intensity, better of two orientations |
| B30 | 9.38 ln median PBM intensity, better of two orientations |
| B31 | 9.37 ln median PBM intensity, better of two orientations |
| B32 | 9.33 ln median PBM intensity, better of two orientations |
| B33 | 9.33 ln median PBM intensity, better of two orientations |
| B34 | 9.36 ln median PBM intensity, better of two orientations |
| B35 | 9.45 ln median PBM intensity, better of two orientations |
| B36 | 9.35 ln median PBM intensity, better of two orientations |
| B37 | 9.46 ln median PBM intensity, better of two orientations |
| B38 | 9.35 ln median PBM intensity, better of two orientations |
| B39 | 9.41 ln median PBM intensity, better of two orientations |
| B40 | 9.4 ln median PBM intensity, better of two orientations |
| B41 | 9.33 ln median PBM intensity, better of two orientations |
| B42 | 9.36 ln median PBM intensity, better of two orientations |
| B43 | 9.42 ln median PBM intensity, better of two orientations |
| B44 | 9.41 ln median PBM intensity, better of two orientations |
